From IntAct's records for PubMed 31515488 come the findings set out here.

B1: Notch homolog 2 N-terminal-like protein A (Homo sapiens), Q7Z3S9 (parent)
chain: MCVTYHNGTGYCKCPEGFLGEYCQHRDPCEKNRCQNGGTCVAQAMLGKATCRCASGFTGEDCQYSTSHPCFVSRPCLNGGTCHMLSRDTYECTCQVGFTGKECQWTDACLSHPCANGSTCTTVANQFSCKCLTGFTGQKCETDVNECDIPGHCQHGGTCLNLPGSYQCQCLQGFTGQYCDSLYVPCAPSPCVNGGTCRQTGDFTFECNCLPETVRRGTELWERDREVWNGKEHDEN

The variants in the first test derive from B1. The settings on record: with pde9a_human PDE9A.
Take A115T: the “effect of a mutation on the interaction” value was “with no effect”.

Variants of B1 are the subject of another test. The settings on record: with ppbi_human ALPI.
With A115T, the “effect of a mutation on the interaction” value is “with no effect”.

Another test covers variants of B1. Conditions: with snai1_human SNAI1, O95863.
Chain of snai1_human SNAI1, O95863 (O95863 whole entry): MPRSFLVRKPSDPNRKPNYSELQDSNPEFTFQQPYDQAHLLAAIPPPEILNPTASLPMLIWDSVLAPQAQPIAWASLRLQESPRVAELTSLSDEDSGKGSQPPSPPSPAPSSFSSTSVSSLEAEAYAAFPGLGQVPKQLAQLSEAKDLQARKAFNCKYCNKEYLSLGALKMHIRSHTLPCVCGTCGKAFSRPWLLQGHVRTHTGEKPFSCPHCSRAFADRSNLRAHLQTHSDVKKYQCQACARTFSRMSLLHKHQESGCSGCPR
With A115T, the “effect of a mutation on the interaction” value is listed as “with no effect”.

Variants of B1 are the subject of another test. Conditions: with anfb_human NPPB.
For the variant A115T, the “effect of a mutation on the interaction” value is “with no effect”.

The variants in the next test derive from B1. Conditions: with adck5_human ADCK5, Q3MIX3.
Chain of adck5_human ADCK5, Q3MIX3 (Q3MIX3 whole entry): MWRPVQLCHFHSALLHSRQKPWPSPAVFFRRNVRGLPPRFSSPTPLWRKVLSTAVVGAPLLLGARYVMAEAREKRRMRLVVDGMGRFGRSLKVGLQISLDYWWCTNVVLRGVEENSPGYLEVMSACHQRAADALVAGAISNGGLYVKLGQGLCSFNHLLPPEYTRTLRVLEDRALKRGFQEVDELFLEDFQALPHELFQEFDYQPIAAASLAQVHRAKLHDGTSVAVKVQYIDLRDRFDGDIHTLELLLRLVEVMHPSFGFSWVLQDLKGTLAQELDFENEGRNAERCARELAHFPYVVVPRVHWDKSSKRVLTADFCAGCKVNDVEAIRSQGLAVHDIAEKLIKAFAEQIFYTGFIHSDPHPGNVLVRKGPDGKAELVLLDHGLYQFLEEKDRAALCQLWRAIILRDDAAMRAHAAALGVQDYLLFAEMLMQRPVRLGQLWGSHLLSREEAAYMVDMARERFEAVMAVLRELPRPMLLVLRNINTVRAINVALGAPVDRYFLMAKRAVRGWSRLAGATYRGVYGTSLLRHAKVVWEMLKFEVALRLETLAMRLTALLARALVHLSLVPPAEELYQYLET
For the variant A115T, the “effect of a mutation on the interaction” value is on record as “with no effect”.

In a further test the parent is B1. The settings on record: with catz_human CTSZ.
Turning to A115T, the “effect of a mutation on the interaction” value is “with no effect”.

In a further test the parent is B1. Conditions: with txnd5_human TXNDC5, Q8NBS9.
Chain of txnd5_human TXNDC5, Q8NBS9 (Q8NBS9 whole entry): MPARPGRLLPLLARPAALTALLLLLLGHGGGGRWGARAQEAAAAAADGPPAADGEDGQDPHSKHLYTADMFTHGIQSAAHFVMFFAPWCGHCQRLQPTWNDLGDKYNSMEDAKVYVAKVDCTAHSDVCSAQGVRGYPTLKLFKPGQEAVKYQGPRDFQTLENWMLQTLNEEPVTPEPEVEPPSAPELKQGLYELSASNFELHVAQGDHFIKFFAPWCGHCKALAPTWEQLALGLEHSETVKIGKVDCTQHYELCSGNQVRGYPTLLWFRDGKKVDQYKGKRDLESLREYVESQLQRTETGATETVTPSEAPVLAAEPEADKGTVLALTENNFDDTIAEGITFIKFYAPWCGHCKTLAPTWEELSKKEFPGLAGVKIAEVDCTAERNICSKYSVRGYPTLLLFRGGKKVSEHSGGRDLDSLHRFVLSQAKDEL
Consider A115T, for which the “effect of a mutation on the interaction” value was “with no effect”.

In a further test the parent is B1. Conditions: with trpv6_human TRPV6, Q9H1D0.
For A115T, the “effect of a mutation on the interaction” value is given as “with no effect”.

The variants in the next test derive from B1. The settings on record: with ptn23_human PTPN23, Q9H3S7.
Regarding A115T, the “effect of a mutation on the interaction” value is reported as “with no effect”.

The variants in the next test derive from B1. The settings on record: with gata2_human GATA2, P23769.
Chain of gata2_human GATA2, P23769 (P23769 whole entry): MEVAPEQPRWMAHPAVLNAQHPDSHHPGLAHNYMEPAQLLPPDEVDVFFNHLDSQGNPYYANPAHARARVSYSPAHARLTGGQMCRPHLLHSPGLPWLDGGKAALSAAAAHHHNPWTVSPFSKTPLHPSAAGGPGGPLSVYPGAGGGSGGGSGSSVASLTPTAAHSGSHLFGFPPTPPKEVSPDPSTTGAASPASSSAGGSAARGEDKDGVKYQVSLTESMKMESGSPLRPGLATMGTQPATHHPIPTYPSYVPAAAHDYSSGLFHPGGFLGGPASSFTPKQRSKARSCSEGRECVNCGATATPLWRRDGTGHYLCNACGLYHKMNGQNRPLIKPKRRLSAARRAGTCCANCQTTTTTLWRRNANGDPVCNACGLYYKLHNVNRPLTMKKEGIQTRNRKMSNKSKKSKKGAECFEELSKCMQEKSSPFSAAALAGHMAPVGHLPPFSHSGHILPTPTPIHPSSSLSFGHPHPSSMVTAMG
A115T: the “effect of a mutation on the interaction” value was “with no effect”.

Variants of B1 are the subject of a further test. Conditions: with hbaz_human HBZ.
Consider A115T, for which the “effect of a mutation on the interaction” value was “with no effect”.

In a further test the parent is B1. Conditions: with nect3_human NECTIN3, Q9NQS3.
Chain of nect3_human NECTIN3, Q9NQS3 (Q9NQS3 whole entry, looked up): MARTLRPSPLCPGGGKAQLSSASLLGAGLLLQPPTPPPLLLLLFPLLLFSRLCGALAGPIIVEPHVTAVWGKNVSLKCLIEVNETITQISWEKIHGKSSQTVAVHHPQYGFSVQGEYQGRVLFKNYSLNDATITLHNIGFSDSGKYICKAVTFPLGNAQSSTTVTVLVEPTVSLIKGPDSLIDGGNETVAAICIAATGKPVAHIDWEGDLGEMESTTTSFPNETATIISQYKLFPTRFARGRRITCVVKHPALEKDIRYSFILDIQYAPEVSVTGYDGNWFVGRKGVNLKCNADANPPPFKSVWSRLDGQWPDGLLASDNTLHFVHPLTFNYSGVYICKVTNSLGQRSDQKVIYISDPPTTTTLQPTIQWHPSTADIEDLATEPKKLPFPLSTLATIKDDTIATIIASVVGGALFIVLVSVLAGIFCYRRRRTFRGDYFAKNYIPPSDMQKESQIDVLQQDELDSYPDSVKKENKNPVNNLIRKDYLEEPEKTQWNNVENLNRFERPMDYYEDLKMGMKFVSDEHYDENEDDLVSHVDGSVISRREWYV
For the variant A115T, the “effect of a mutation on the interaction” value is on record as “with no effect”.

Variants of B1 are the subject of the next test. Conditions: with itb2_human ITGB2, P05107.
Chain of itb2_human ITGB2, P05107 (P05107 whole entry): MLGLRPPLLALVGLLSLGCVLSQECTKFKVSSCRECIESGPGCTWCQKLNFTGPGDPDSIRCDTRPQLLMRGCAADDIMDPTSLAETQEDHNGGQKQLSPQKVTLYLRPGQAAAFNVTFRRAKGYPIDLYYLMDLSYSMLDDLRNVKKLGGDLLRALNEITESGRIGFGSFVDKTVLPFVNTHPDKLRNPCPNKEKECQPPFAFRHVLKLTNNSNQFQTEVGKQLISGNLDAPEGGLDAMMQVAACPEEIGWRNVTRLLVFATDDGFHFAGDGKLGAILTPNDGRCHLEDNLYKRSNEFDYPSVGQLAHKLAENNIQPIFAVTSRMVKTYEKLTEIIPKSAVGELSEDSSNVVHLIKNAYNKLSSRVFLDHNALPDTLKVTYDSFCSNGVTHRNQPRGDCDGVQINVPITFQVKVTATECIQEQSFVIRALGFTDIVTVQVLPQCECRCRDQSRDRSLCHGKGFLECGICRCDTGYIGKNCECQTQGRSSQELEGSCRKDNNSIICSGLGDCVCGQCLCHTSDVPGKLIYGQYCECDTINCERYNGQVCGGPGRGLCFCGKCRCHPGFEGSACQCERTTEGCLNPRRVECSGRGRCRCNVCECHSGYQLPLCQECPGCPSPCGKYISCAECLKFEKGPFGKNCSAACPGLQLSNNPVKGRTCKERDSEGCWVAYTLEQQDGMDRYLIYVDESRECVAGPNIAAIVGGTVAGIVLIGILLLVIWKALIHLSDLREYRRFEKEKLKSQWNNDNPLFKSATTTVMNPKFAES
In the case of A115T, the “effect of a mutation on the interaction” value is “with no effect”.

The next test covers variants of B1. Conditions: with cd5r1_human CDK5R1, Q15078.
Chain of cd5r1_human CDK5R1, Q15078 (Q15078 whole entry): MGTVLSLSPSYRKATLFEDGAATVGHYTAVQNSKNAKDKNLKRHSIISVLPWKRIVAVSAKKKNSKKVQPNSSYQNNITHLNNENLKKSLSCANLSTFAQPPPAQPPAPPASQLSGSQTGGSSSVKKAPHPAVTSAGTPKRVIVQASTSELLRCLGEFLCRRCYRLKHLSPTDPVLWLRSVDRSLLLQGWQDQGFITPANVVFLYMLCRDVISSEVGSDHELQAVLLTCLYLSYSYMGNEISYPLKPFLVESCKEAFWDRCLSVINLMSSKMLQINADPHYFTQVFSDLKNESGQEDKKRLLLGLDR
Turning to A115T, the “effect of a mutation on the interaction” value was “with no effect”.

Another test covers variants of B1. Conditions: with uxt_human UXT.
A115T: the “effect of a mutation on the interaction” value is “with no effect”.

The next test covers variants of B1. Conditions: with yipf3_human YIPF3, Q9GZM5.
Chain of yipf3_human YIPF3, Q9GZM5 (Q9GZM5 whole entry): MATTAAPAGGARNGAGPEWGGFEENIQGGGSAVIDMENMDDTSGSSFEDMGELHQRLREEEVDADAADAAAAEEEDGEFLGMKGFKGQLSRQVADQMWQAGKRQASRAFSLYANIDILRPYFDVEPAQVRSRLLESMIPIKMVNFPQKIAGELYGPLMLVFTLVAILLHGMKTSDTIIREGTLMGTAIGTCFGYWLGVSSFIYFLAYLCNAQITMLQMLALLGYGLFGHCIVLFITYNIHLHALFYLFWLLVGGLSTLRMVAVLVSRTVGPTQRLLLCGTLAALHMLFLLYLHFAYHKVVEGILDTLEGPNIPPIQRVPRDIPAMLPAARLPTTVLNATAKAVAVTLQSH
Take A115T: the “effect of a mutation on the interaction” value is “with no effect”.

Variants of B1 are the subject of a further test. Conditions: with thms2_human THEMIS2, Q5TEJ8.
Chain of thms2_human THEMIS2, Q5TEJ8 (Q5TEJ8 whole entry): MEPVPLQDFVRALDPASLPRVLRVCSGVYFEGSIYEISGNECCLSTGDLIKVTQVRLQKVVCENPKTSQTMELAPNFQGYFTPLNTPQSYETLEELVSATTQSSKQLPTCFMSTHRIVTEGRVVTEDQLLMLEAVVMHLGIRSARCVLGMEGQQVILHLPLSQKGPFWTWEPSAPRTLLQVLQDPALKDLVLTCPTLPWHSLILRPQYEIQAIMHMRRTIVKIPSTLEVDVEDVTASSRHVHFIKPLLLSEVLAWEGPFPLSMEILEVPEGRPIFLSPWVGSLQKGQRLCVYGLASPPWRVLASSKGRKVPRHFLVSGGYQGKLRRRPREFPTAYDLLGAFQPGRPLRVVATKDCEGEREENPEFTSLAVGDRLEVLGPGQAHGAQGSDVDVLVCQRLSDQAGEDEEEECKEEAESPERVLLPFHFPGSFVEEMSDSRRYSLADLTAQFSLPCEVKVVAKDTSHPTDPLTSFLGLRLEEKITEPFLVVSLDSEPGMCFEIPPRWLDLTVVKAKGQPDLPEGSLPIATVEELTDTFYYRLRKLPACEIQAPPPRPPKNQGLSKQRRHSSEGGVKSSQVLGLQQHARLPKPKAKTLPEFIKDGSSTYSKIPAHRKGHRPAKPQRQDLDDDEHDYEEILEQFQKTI
With A115T, the “effect of a mutation on the interaction” value was “with no effect”.

Another test covers variants of B1. The settings on record: with bmp7_human BMP7, P18075.
Chain of bmp7_human BMP7, P18075 (P18075 whole entry): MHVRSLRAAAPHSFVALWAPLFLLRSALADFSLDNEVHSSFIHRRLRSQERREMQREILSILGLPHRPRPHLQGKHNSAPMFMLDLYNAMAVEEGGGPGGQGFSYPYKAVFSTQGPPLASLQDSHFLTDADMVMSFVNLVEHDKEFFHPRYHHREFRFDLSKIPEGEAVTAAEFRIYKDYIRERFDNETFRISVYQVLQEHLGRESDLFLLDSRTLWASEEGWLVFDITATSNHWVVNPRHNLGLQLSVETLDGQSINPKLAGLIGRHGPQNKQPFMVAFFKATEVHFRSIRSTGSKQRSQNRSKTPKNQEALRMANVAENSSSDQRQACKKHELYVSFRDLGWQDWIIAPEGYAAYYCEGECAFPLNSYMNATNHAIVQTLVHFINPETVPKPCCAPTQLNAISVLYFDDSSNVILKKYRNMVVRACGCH
For the variant A115T, the “effect of a mutation on the interaction” value was “with no effect”.

The variants in another test derive from B1. The settings on record: with cxcl5_human CXCL5, P42830.
Chain of cxcl5_human CXCL5, P42830 (P42830 whole entry): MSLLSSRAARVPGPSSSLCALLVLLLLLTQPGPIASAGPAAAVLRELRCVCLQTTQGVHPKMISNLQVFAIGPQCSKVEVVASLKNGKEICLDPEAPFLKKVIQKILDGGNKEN
Take A115T: the “effect of a mutation on the interaction” value was “with no effect”.
